Data as given in the supplement of paper PMC9233669.
Fewer inactive variants are shown than the library holds.

What was measured:
biotinyl-Leu-oxazolone = assay: self-aminoacylation, catalytic enhancement (BLO) (fold over background); higher = more active; k-Seq, kA / k0A0; sequences stand for … in GGGAAUGGAUCCACAUCUACGAAUUC…UUCACUGCAGACUUGACGAAGCUG
Procedure, shortened: (§1)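 Working in 50 μL HEPES/NaCl/KCl/MgCl2/CaCl2 buffer with 5% acetonitrile at pH 6.9–7.0, mutagenized RNA pools (0.43 μM; 21-nt variable region) were reacted with 2–1250 μM of each biotinyl-aminoacyl-oxazolone for 90 minutes at room temperature. Streptavidin capture followed, with quantification by triplicate qPCR and Illumina sequencing. Catalytic enhancement is reported as median kA over the uncatalyzed rate, the low-activity peak of a bimodal Gaussian fit to the data.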

biotinyl-Val-oxazolone = assay: self-aminoacylation, catalytic enhancement (BVO) (fold over background); higher = more active; k-Seq, kA / k0A0; sequences stand for … in GGGAAUGGAUCCACAUCUACGAAUUC…UUCACUGCAGACUUGACGAAGCUG
Procedure, shortened: as §1

biotinyl-Met-oxazolone = assay: self-aminoacylation, catalytic enhancement (BMO) (fold over background); higher = more active; k-Seq, kA / k0A0; sequences stand for … in GGGAAUGGAUCCACAUCUACGAAUUC…UUCACUGCAGACUUGACGAAGCUG
Procedure, shortened: as §1

biotinyl-Phe-oxazolone = assay: self-aminoacylation, catalytic enhancement (BFO) (fold over background); higher = more active; k-Seq, kA / k0A0; sequences stand for … in GGGAAUGGAUCCACAUCUACGAAUUC…UUCACUGCAGACUUGACGAAGCUG
Procedure, shortened: as §1

biotinyl-Ile-oxazolone = assay: self-aminoacylation, catalytic enhancement (BIO) (fold over background); higher = more active; k-Seq, kA / k0A0; sequences stand for … in GGGAAUGGAUCCACAUCUACGAAUUC…UUCACUGCAGACUUGACGAAGCUG
Procedure, shortened: as §1

biotinyl-Trp-oxazolone = assay: self-aminoacylation, catalytic enhancement (BWO) (fold over background); higher = more active; k-Seq, kA / k0A0; sequences stand for … in GGGAAUGGAUCCACAUCUACGAAUUC…UUCACUGCAGACUUGACGAAGCUG
Procedure, shortened: as §1

Row | Sequence | self-aminoacylation (biotinyl-Leu-oxazolone) | self-aminoacylation (biotinyl-Val-oxazolone) | self-aminoacylation (biotinyl-Met-oxazolone) | self-aminoacylation (biotinyl-Phe-oxazolone) | self-aminoacylation (biotinyl-Ile-oxazolone) | self-aminoacylation (biotinyl-Trp-oxazolone)
1 | AUUACCCUAGUCGUCGAGUGA [Fam2.1 aminoacylation ribozyme variant] | 0.845 | 0.97 | 0.893 | 1.04 | 0.866 | 0.759
2 | AUUACCCUAGUGAUCGAGUGA [Fam2.1 aminoacylation ribozyme variant] | 2.72 | 1.86 | 3.31 | 7.82 | 1.76 | 3.1
3 | AUUACCCUCGGCAUCGAGUGA [Fam2.1 aminoacylation ribozyme variant] | 11.1 | 4.45 | 10.2 | 59.4 | 4.6 | 13.9
4 | AUUACCCUCGUCAUAGAGUGA [Fam2.1 aminoacylation ribozyme variant] | 4.19 | 2.72 | 4.53 | 11.5 | 2.43 | 4.65
5 | AUUACCCUCGUCAUCAAGUGA [Fam2.1 aminoacylation ribozyme variant] | 2.87 | 2.19 | 2.96 | 6.71 | 1.92 | 4.2
6 | AUUACCCUCGUCAUCCAGUGA [Fam2.1 aminoacylation ribozyme variant] | 1.94 | 1.29 | 1.51 | 1.18 | 1.44 | 1.02
7 | AUUACCCUCGUCAUCGAGUGC [Fam2.1 aminoacylation ribozyme variant] | 1.17 | 0.864 | 0.914 | 1.29 | 0.96 | 0.477
8 | AUUACCCUCGUCAUCGAGUUA [Fam2.1 aminoacylation ribozyme variant] | 0.983 | 0.943 | 0.915 | 0.569 | 0.965 | 0.486
9 | AUUACCCUCGUCAUUGAGUGA [Fam2.1 aminoacylation ribozyme variant] | 3.99 | 2.55 | 4.09 | 11.2 | 2.22 | 5.16
10 | AUUACCCUCUUCAUCGAGUGA [Fam2.1 aminoacylation ribozyme variant] | 1.41 | 1.11 | 1.33 | 1.52 | 1.02 | 0.851
11 | AUUACCCUGAUCAUCAAGUGA [Fam2.1 aminoacylation ribozyme variant] | 2.77 | 1.77 | 2.3 | 3.86 | 1.57 | 3.1
12 | AUUACCCUGAUCAUCGACUGA [Fam2.1 aminoacylation ribozyme variant] | 0.777 | 0.876 | 0.78 | 1.16 | 0.928 | 0.666
13 | AUUACCCUGAUCAUCGAGUCA [Fam2.1 aminoacylation ribozyme variant] | 0.722 | 0.786 | 0.577 | 0.555 | 0.738 | 0.305
14 | AUUACCCUGAUCAUCGUGUGA [Fam2.1 aminoacylation ribozyme variant] | 5.65 | 2.67 | 5.72 | 27.5 | 2.37 | 5.88
15 | AUUACCCUGCUCAUCGAGGGA [Fam2.1 aminoacylation ribozyme variant] | 0.858 | 0.905 | 0.947 | 0.691 | 1.02 | 0.707
16 | AUUACCCUGCUCAUCGAGUGA [Fam2.1 aminoacylation ribozyme variant] | 1.87 | 1.52 | 1.99 | 2.7 | 1.34 | 2.33
17 | AUUACCCUGCUCAUCGGGUGA [Fam2.1 aminoacylation ribozyme variant] | 5.17 | 3.34 | 4.81 | 33.5 | 2.63 | 6
18 | AUUACCCUGCUCAUGGAGUGA [Fam2.1 aminoacylation ribozyme variant] | 10.1 | 4.47 | 9.54 | 63.7 | 4.53 | 12.3
19 | AUUACCCUGGACAACGAGUGA [Fam2.1 aminoacylation ribozyme variant] | 8.43 | 3.76 | 8.65 | 59.1 | 3.88 | 9.2
20 | AUUACCCUGGACAGCGAGUGA [Fam2.1 aminoacylation ribozyme variant] | 4.19 | 2.12 | 3.3 | 10.9 | 2.24 | 2.52
21 | AUUACCCUGGACAUCGAAUGA [Fam2.1 aminoacylation ribozyme variant] | 0.96 | 0.895 | 0.846 | 0.708 | 1.23 | 0.378
22 | AUUACCCUGGACAUCGAGUGA [Fam2.1 aminoacylation ribozyme variant] | 5.18 | 2.79 | 5.32 | 19.6 | 2.52 | 5.97
23 | AUUACCCUGGACAUCGCGUGA [Fam2.1 aminoacylation ribozyme variant] | 9.65 | 5.5 | 9.04 | 80 | 4.42 | 9.83
24 | AUUACCCUGGACAUCGGGUGA [Fam2.1 aminoacylation ribozyme variant] | 10.2 | 7.46 | 9.33 | 29.7 | 7.02 | 7.69
25 | AUUACCCUGGACCUCGAGUGA [Fam2.1 aminoacylation ribozyme variant] | 3.9 | 2.4 | 3.68 | 5.71 | 1.88 | 3.16
26 | AUUACCCUGGAGAUCGAGUGA [Fam2.1 aminoacylation ribozyme variant] | 7.42 | 3.79 | 6.7 | 28.9 | 3.59 | 8.06

Row | Sequence | self-aminoacylation (biotinyl-Leu-oxazolone) | self-aminoacylation (biotinyl-Val-oxazolone) | self-aminoacylation (biotinyl-Met-oxazolone) | self-aminoacylation (biotinyl-Phe-oxazolone) | self-aminoacylation (biotinyl-Ile-oxazolone) | self-aminoacylation (biotinyl-Trp-oxazolone)
27 | AUUACCCUGGAUAUCGAGUGA [Fam2.1 aminoacylation ribozyme variant] | 11.1 | 4.88 | 10.5 | 67.3 | 4.43 | 12.9
28 | AUUACCCUGGCCAUCGAGGGA [Fam2.1 aminoacylation ribozyme variant] | 1.47 | 2.96 | 1.01 | 0.483 | 1.9 | 1.31
29 | AUUACCCUGGCCAUUGAGUGA [Fam2.1 aminoacylation ribozyme variant] | 4.53 | 2.41 | 3.72 | 4.63 | 2.13 | 4.73
30 | AUUACCCUGGGCAGCGAGUGA [Fam2.1 aminoacylation ribozyme variant] | 8.78 | 5.64 | 9.21 | 34.6 | 5.87 | 9.57
31 | AUUACCCUGGGCAUAGAGUGA [Fam2.1 aminoacylation ribozyme variant] | 12.6 | 4.72 | 10.1 | 71.5 | 4.98 | 12.6
32 | AUUACCCUGGGCAUCGAGAGA [Fam2.1 aminoacylation ribozyme variant] | 0.749 | 0.74 | 0.914 | 0.489 | 0.802 | 0.642
33 | AUUACCCUGGGCAUCGAGCGA [Fam2.1 aminoacylation ribozyme variant] | 0.813 | 1.48 | 1.08 | 7.68 | 1.26 | 1.43
34 | AUUACCCUGGGCAUCGAGUGC [Fam2.1 aminoacylation ribozyme variant] | 0.992 | 0.979 | 1.24 | 0.527 | 1.1 | 1.31
35 | AUUACCCUGGUAAUCGAGUGC [Fam2.1 aminoacylation ribozyme variant] | 1.04 | 0.801 | 1.12 | 1.38 | 0.957 | 0.656
36 | AUUACCCUGGUAAUCGCGUGA [Fam2.1 aminoacylation ribozyme variant] | 8.44 | 3.66 | 7.29 | 58.9 | 3.14 | 7.81
37 | AUUACCCUGGUCAAUGAGUGA [Fam2.1 aminoacylation ribozyme variant] | 6.7 | 3.7 | 7.16 | 30.9 | 3.46 | 8.83
38 | AUUACCCUGGUCACCGAGCGA [Fam2.1 aminoacylation ribozyme variant] | 1.54 | 1.25 | 2.08 | 0.94 | 1.16 | 0.843
39 | AUUACCCUGGUCACCGAGGGA [Fam2.1 aminoacylation ribozyme variant] | 1.83 | 2.39 | 2.27 | 0.887 | 1.67 | 3.76
40 | AUUACCCUGGUCAGCGAGGGA [Fam2.1 aminoacylation ribozyme variant] | 0.891 | 1.19 | 1.34 | 0.743 | 1.54 | 2.06
41 | AUUACCCUGGUCAGCUAGUGA [Fam2.1 aminoacylation ribozyme variant] | 3.32 | 2.34 | 3.32 | 6.76 | 2.53 | 3.12
42 | AUUACCCUGGUCAUAAAGUGA [Fam2.1 aminoacylation ribozyme variant] | 10.3 | 5.16 | 11.1 | 43.9 | 4.88 | 13.4
43 | AUUACCCUGGUCAUAGAGUAA [Fam2.1 aminoacylation ribozyme variant] | 1.37 | 1.29 | 1.17 | 0.983 | 1.44 | 0.757
44 | AUUACCCUGGUCAUAGAGUGU [Fam2.1 aminoacylation ribozyme variant] | 3.73 | 2.58 | 4.07 | 13.5 | 2.08 | 4.8
45 | AUUACCCUGGUCAUCAAUUGA [Fam2.1 aminoacylation ribozyme variant] | 0.963 | 0.92 | 0.948 | 0.681 | 0.823 | 0.826
46 | AUUACCCUGGUCAUCAGGUGA [Fam2.1 aminoacylation ribozyme variant] | 4.45 | 3.03 | 5.07 | 29.8 | 2.6 | 5.53
47 | AUUACCCUGGUCAUCCAGCGA [Fam2.1 aminoacylation ribozyme variant] | 4.08 | 2.68 | 3.38 | 10.1 | 2.7 | 3.97
48 | AUUACCCUGGUCAUCCAGUGU [Fam2.1 aminoacylation ribozyme variant] | 3.15 | 1.81 | 3.14 | 7.23 | 1.95 | 3.1
49 | AUUACCCUGGUCAUCCGGUGA [Fam2.1 aminoacylation ribozyme variant] | 9.32 | 6.25 | 8.7 | 52.5 | 6.78 | 9.05
50 | AUUACCCUGGUCAUCCUGUGA [Fam2.1 aminoacylation ribozyme variant] | 1.71 | 1.07 | 1.39 | 2.81 | 1.51 | 1.52
51 | AUUACCCUGGUCAUCGACAGA [Fam2.1 aminoacylation ribozyme variant] | 0.738 | 0.774 | 0.716 | 0.705 | 1.04 | 0.676
